Patent publication US20150297672A1 (TXP PHARMA, published 2015)
Where no end group is shown, it is not given here. [ ]: non-standard residue; d: D form.

Columns and labels:
[1] = molecular target: T1, human melanocortin receptor type 1 (MC1r) (human, UniProt Q01726 1-317)
T1 construct: whole, on cells; also called MCr1; MCR1

[2] = molecular target: T1, human melanocortin receptor type 1 …; test: cell-based or functional assay

T1 sequence (Q01726 whole entry): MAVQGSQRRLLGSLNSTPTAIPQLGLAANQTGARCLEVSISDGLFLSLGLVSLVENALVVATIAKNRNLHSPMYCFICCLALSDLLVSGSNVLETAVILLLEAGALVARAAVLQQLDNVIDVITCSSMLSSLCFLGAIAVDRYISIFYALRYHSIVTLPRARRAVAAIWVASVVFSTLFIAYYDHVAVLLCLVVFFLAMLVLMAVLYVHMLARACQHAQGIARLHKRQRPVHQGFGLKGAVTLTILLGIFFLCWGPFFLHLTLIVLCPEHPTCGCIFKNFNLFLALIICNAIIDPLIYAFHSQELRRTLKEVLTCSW

IC50 [1] | EC50, cAMP production [2] | Binder
0.606 nM | – | γ-MSH analogue #2: Ac-(Ac-Lys-Lys-)Lys-Tyr-Val-Met-Gly-His-Phe-Arg-(D-Trp)-Asp-Arg-Phe-Gly-NH2 (D-Trp version of SEQ ID NO:8) (also: bond at chain A 1 to a chain's C-terminus via isopeptide: branch C-terminus to Lys1 ε-amine, Branched peptide; the second chain is the side branch on Lys1) peptide: Ac-KYVMGHFR[dW]DRFG-NH2 Ac-Lys-Lys
0.0645 nM | 0.2 nM | α-MSH analogue #1: Ac-(Ac-Lys-Lys-)Lys-Ser-Tyr-Ser-Met-Glu-His-Phe-Arg-Trp-Gly-Lys-Pro-Val-NH2 (Ac-(Ac-Lys-Lys-)Lys-SEQ ID NO:2) (also: bond at chain A 1 to a chain's C-terminus via isopeptide: branch C-terminus to Lys1 ε-amine, Branched peptide) peptide: Ac-KSYSMEHFRWGKPV-NH2 Ac-Lys-Lys
